Measured values as given in the supplement of paper PMC10567573.

B1: CHMP4C (parent)
chain: TNIRLPNVPSSSLPAQPNRKPGMS
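Note: lentivirally expressed fusions sorted by FACS into six bins by GFP to DsRed ratio, PSI derived from sequencing read proportions per bin multiplied by bin number.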

Variants of: B1
Test: protein stability index of a GFP-peptide fusion (GPS, HEK-293T) (PSI 1-6); higher = more stable
Details: c terminus: a fixed tail appended
Work on TNIRLPNVPWSSLPAQPNRKPGMS [S10W] yielded a protein stability index of 4.46. TNIRLANVPSSSLPAQPNRKPGMS [P6A] showed a protein stability index of 3.96. Variant TNIRLWNVPSSSLPAQPNRKPGMS [P6W] has a protein stability index of 3.34. TNIRLHNVPSSSLPAQPNRKPGMS [P6H] gave a protein stability index of 3.02. For TNIRLNNVPSSSLPAQPNRKPGMS [P6N], the protein stability index was 4.18. Work on TNIRLMNVPSSSLPAQPNRKPGMS [P6M] yielded a protein stability index of 3.36. Work on TNIRLTNVPSSSLPAQPNRKPGMS [P6T] yielded a protein stability index of 3.75. Work on TNIRLENVPSSSLPAQPNRKPGMS [P6E] yielded a protein stability index of 4.48. TNIRLFNVPSSSLPAQPNRKPGMS [P6F] showed a protein stability index of 3.28. For TNIRLDNVPSSSLPAQPNRKPGMS [P6D], the protein stability index was 4.36. Work on TNIRLYNVPSSSLPAQPNRKPGMS [P6Y] yielded a protein stability index of 2.66. With TNIRLVNVPSSSLPAQPNRKPGMS [P6V] the protein stability index was 3.1. With TNIRLKNVPSSSLPAQPNRKPGMS [P6K] the protein stability index was 4.23. TNIRLRNVPSSSLPAQPNRKPGMS [P6R] showed a protein stability index of 4.04. Variant TNIRLINVPSSSLPAQPNRKPGMS [P6I] has a protein stability index of 2.71. TNIRLSNVPSSSLPAQPNRKPGMS [P6S] showed a protein stability index of 4.44. With TNIRLCNVPSSSLPAQPNRKPGMS [P6C] the protein stability index was 3.56. TNIRLGNVPSSSLPAQPNRKPGMS [P6G] gave a protein stability index of 4.26. Work on TNIRLLNVPSSSLPAQPNRKPGMS [P6L] yielded a protein stability index of 2.99. With TNIRLQNVPSSSLPAQPNRKPGMS [P6Q] the protein stability index was 3.19. With TGIRLPNVPSSSLPAQPNRKPGMS [N2G] the protein stability index was 4.24. TPIRLPNVPSSSLPAQPNRKPGMS [N2P] showed a protein stability index of 5.25. With TSIRLPNVPSSSLPAQPNRKPGMS [N2S] the protein stability index was 4.7. In the case of TTIRLPNVPSSSLPAQPNRKPGMS [N2T], the protein stability index is reported as 4.59. TRIRLPNVPSSSLPAQPNRKPGMS [N2R] showed a protein stability index of 4.08. Variant TLIRLPNVPSSSLPAQPNRKPGMS [N2L] has a protein stability index of 3.44. In the case of TFIRLPNVPSSSLPAQPNRKPGMS [N2F], the protein stability index is reported as 3.43. With TWIRLPNVPSSSLPAQPNRKPGMS [N2W] the protein stability index was 3.01. TYIRLPNVPSSSLPAQPNRKPGMS [N2Y] gave a protein stability index of 3.51. TQIRLPNVPSSSLPAQPNRKPGMS [N2Q] showed a protein stability index of 4.27. TIIRLPNVPSSSLPAQPNRKPGMS [N2I] showed a protein stability index of 3.44. TVIRLPNVPSSSLPAQPNRKPGMS [N2V] gave a protein stability index of 4.16. TMIRLPNVPSSSLPAQPNRKPGMS [N2M] showed a protein stability index of 4.66. Work on TKIRLPNVPSSSLPAQPNRKPGMS [N2K] yielded a protein stability index of 4.24. Variant THIRLPNVPSSSLPAQPNRKPGMS [N2H] has a protein stability index of 4.51. With TNIRLPNVPSQSLPAQPNRKPGMS [S11Q] the protein stability index was 4.53. Work on TNIRLPNVPSMSLPAQPNRKPGMS [S11M] yielded a protein stability index of 3.73. Variant TNIRLPNVPSHSLPAQPNRKPGMS [S11H] has a protein stability index of 4.6. For TNIRLPNVPSTSLPAQPNRKPGMS [S11T], the protein stability index was 3.48. Work on TNIRLPNVPSASLPAQPNRKPGMS [S11A] yielded a protein stability index of 4.87. TNIRLPNVPSNSLPAQPNRKPGMS [S11N] showed a protein stability index of 4.19. Work on TNIRLPNVPSLSLPAQPNRKPGMS [S11L] yielded a protein stability index of 4.01. Work on TNIRLPNVPSKSLPAQPNRKPGMS [S11K] yielded a protein stability index of 4.49. For TNIRLPNVPSFSLPAQPNRKPGMS [S11F], the protein stability index was 4.12. In the case of TNIRLPNVPSVSLPAQPNRKPGMS [S11V], the protein stability index is reported as 4.13. Variant TNIRLPNVPSRSLPAQPNRKPGMS [S11R] has a protein stability index of 4.79. With TNIRLPNVPSISLPAQPNRKPGMS [S11I] the protein stability index was 4.68. With TNIRLPNVPSPSLPAQPNRKPGMS [S11P] the protein stability index was 4.61. TNIRLPNVPSESLPAQPNRKPGMS [S11E] showed a protein stability index of 4.1. Work on TNIRLPNVPSWSLPAQPNRKPGMS [S11W] yielded a protein stability index of 3.97. In the case of TNIRLPNVPSYSLPAQPNRKPGMS [S11Y], the protein stability index is reported as 4.28. TNIRLPNVPSGSLPAQPNRKPGMS [S11G] gave a protein stability index of 4.51. TNIRLPNVPSCSLPAQPNRKPGMS [S11C] gave a protein stability index of 4.86. For TNIRLPNVPSDSLPAQPNRKPGMS [S11D], the protein stability index was 4.94. In the case of TNIRLPNVPSSCLPAQPNRKPGMS [S12C], the protein stability index is reported as 4.18. In the case of TNIRLPNVPSSALPAQPNRKPGMS [S12A], the protein stability index is reported as 4.51. Work on TNLRLPNVPSSSLPAQPNRKPGMS [I3L] yielded a protein stability index of 4.26. With TNMRLPNVPSSSLPAQPNRKPGMS [I3M] the protein stability index was 4.76. Variant TNRRLPNVPSSSLPAQPNRKPGMS [I3R] has a protein stability index of 4.41. Variant TNKRLPNVPSSSLPAQPNRKPGMS [I3K] has a protein stability index of 3.99. Variant TNYRLPNVPSSSLPAQPNRKPGMS [I3Y] has a protein stability index of 4.33. TNWRLPNVPSSSLPAQPNRKPGMS [I3W] showed a protein stability index of 4.13. Work on TNSRLPNVPSSSLPAQPNRKPGMS [I3S] yielded a protein stability index of 4.71. TNVRLPNVPSSSLPAQPNRKPGMS [I3V] showed a protein stability index of 4.54. In the case of TNARLPNVPSSSLPAQPNRKPGMS [I3A], the protein stability index is reported as 4.73. For TNTRLPNVPSSSLPAQPNRKPGMS [I3T], the protein stability index was 4.82. With TNDRLPNVPSSSLPAQPNRKPGMS [I3D] the protein stability index was 4.63. Variant TNQRLPNVPSSSLPAQPNRKPGMS [I3Q] has a protein stability index of 4.87. TNPRLPNVPSSSLPAQPNRKPGMS [I3P] showed a protein stability index of 4.77. Variant TNCRLPNVPSSSLPAQPNRKPGMS [I3C] has a protein stability index of 4.55. Variant TNFRLPNVPSSSLPAQPNRKPGMS [I3F] has a protein stability index of 4.2. TNERLPNVPSSSLPAQPNRKPGMS [I3E] gave a protein stability index of 4.92. TNGRLPNVPSSSLPAQPNRKPGMS [I3G] showed a protein stability index of 4.72. TNNRLPNVPSSSLPAQPNRKPGMS [I3N] gave a protein stability index of 4.81. TNHRLPNVPSSSLPAQPNRKPGMS [I3H] showed a protein stability index of 4.62. For TNIRLPNMPSSSLPAQPNRKPGMS [V8M], the protein stability index was 4.61. TNIRLPNFPSSSLPAQPNRKPGMS [V8F] gave a protein stability index of 4.29. With TNIRLPNWPSSSLPAQPNRKPGMS [V8W] the protein stability index was 4.19. TNIRLPNHPSSSLPAQPNRKPGMS [V8H] gave a protein stability index of 4.77. Variant TNIRLPNIPSSSLPAQPNRKPGMS [V8I] has a protein stability index of 4.76. With TNIRLPNSPSSSLPAQPNRKPGMS [V8S] the protein stability index was 4.49. For TNIRLPNDPSSSLPAQPNRKPGMS [V8D], the protein stability index was 4.54. With TNIRLPNYPSSSLPAQPNRKPGMS [V8Y] the protein stability index was 4.02. With TNIRLPNTPSSSLPAQPNRKPGMS [V8T] the protein stability index was 4.69. TNIRLPNRPSSSLPAQPNRKPGMS [V8R] gave a protein stability index of 4.42. TNIRLPNAPSSSLPAQPNRKPGMS [V8A] gave a protein stability index of 4.51. In the case of TNIRLPNGPSSSLPAQPNRKPGMS [V8G], the protein stability index is reported as 4.47. For TNIRLPNKPSSSLPAQPNRKPGMS [V8K], the protein stability index was 4.63. TNIRLPNLPSSSLPAQPNRKPGMS [V8L] gave a protein stability index of 4.4. Work on TNIRLPNEPSSSLPAQPNRKPGMS [V8E] yielded a protein stability index of 5.14. For TNIRLPNNPSSSLPAQPNRKPGMS [V8N], the protein stability index was 4.58. In the case of TNIRLPNPPSSSLPAQPNRKPGMS [V8P], the protein stability index is reported as 5.05. TNIRLPNQPSSSLPAQPNRKPGMS [V8Q] gave a protein stability index of 4.43. With TNIRLPNCPSSSLPAQPNRKPGMS [V8C] the protein stability index was 3.99.
